Measured values reported in US20220031841A1 (ABSCI, published 2022).

Experiments:
Assay in all cases: HuProt protein array, F635 z-score
[1] = target: T1, Chromobox protein homolog 1 (CBX1) (human, UniProt P83916 1-185)
T1 construct: The array carries full-length recombinant human proteins expressed in S. cerevisiae; also called Human Chromobox protein homolog 1
Excerpt: (§1) Large scale protein arrays are versatile and sensitive platforms for antibody specificity evaluation. They can be used for the evaluation of protein binding or affinity reagents that are widely employed in research and clinical applications. The microarray used in our target identification experiment provides the largest number of unique, full-length, individually purified human proteins on a single microscope slide. This allows thousands of interactions to be profiled in a high-throughput manner. The hill-length recombinant proteins are expressed in the yeast S. cerevisiae, purified, and printed on glass slides in duplicate along with a set of control proteins (GST, BSA, histones, IgG, etc.). Such microarray is not restricted to a particular type of surface coating, although the default is glass coated with ultra-thin nitrocellulose film for the non-covalent, yet irreversible, capture of active proteins to the surface. Fourteen Protein arrays were used for the antibody cross-reactivity assay of the samples. The antibodies were probed at […] on the arrays and incubated at room temperature for 1 hour. After probing, the arrays were washed according to the protocol and probed with Alexa-647-anti-human IgG […] specific secondary antibodies under conditions optimized for signal detection. The antibody-antigen binding score was calculated for each protein represented on the array and expressed as z-scores.
(§2) Antibody samples are probed on native HuProt arrays at 1 μg/ml and incubated at room temperature for 1 hour. After probing, the arrays are washed according to the standard protocols and probed with Alexa-647-anti-human IgG Fc gamma specific secondary antibodies under conditions optimized for signal detection.
(§3) Z score is the average Z score of the duplicate spots of a given protein (each protein is printed in duplicate on a HuProt™ array). The Z score of each spot on a given array is calculated according to the equation: […]

[2] = target: T2, Cancer/testis antigen 1 (CTAG1A) (human, UniProt P78358 1-180)
T2 construct: The array carries full-length recombinant human proteins expressed in S. cerevisiae; also called NY-ESO-1; Cancer/Testis Antigen 1A
Excerpt: as §1, §2, §3

[3] = target: T3, O-linked N-acetylglucosamine (GlcNAc) transferase (OGT) (human, UniProt O15294 2-1046)
T3 construct: The array carries full-length recombinant human proteins expressed in S. cerevisiae; also called Human OGT
T3 sequence: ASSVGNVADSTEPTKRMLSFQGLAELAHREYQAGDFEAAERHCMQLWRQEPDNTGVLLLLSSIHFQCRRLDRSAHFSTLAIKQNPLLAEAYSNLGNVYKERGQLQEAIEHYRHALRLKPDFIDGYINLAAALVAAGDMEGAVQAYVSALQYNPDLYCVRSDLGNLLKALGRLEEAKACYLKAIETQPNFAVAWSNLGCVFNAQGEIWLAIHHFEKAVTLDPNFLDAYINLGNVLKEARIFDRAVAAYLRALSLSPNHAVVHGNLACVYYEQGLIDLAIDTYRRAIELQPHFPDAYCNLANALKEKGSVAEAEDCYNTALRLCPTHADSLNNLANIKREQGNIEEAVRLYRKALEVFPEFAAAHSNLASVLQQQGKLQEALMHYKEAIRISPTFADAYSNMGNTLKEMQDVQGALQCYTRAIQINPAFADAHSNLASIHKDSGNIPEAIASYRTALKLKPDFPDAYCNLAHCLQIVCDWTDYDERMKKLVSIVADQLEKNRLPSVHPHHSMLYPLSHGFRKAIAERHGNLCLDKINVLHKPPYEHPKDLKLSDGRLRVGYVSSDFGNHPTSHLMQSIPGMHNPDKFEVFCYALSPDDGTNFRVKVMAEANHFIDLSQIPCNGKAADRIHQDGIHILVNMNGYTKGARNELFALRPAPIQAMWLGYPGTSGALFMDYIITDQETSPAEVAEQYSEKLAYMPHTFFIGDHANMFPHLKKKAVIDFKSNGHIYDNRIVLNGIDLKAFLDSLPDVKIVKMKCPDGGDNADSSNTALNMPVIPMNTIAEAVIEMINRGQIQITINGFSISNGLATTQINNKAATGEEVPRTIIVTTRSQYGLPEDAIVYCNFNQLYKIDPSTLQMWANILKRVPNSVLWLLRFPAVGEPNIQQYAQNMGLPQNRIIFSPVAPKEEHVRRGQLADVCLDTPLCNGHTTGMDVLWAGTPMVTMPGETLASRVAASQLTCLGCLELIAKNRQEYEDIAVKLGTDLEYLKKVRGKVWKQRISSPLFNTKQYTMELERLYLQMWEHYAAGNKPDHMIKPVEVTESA
Excerpt: as §1, §2, §3

[4] = target: T4, Melanoma-associated antigen 3 (MAGE-A3) (human, UniProt P43357 1-314)
T4 construct: The array carries full-length recombinant human proteins expressed in S. cerevisiae; also called Human MAGE-A3
Excerpt: as §1, §2, §3

[5] = target: T5, Alpha-taxilin (TXLNA) also known as interleukin-14A (human, UniProt P40222 1-546)
T5 construct: The array carries full-length recombinant human proteins expressed in S. cerevisiae; also called IL-14A; TXLNA/IL-14A
Excerpt: as §1, §2, §3

[6] = target: T6, Inorganic pyrophosphatase (PPA1) (human, UniProt Q15181 2-289)
T6 construct: The array carries full-length recombinant human proteins expressed in S. cerevisiae; also called Human PPA1
T6 sequence: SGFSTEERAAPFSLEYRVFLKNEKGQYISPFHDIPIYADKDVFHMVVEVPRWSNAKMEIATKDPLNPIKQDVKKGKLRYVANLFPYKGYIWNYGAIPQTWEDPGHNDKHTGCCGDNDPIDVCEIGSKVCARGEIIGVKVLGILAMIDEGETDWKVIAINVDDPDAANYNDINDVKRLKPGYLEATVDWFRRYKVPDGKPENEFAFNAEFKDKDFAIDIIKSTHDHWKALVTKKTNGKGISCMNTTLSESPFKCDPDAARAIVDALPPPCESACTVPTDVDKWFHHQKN
Excerpt: as §1, §2, §3

[7] = target: T7, Chromobox protein homolog 5 (CBX5) (human, UniProt P45973 1-191)
T7 construct: The array carries full-length recombinant human proteins expressed in S. cerevisiae; also called Human Chromobox protein homolog 5
Excerpt: as §1, §2, §3

Measured: binding result

T5 sequence (P40222 whole entry): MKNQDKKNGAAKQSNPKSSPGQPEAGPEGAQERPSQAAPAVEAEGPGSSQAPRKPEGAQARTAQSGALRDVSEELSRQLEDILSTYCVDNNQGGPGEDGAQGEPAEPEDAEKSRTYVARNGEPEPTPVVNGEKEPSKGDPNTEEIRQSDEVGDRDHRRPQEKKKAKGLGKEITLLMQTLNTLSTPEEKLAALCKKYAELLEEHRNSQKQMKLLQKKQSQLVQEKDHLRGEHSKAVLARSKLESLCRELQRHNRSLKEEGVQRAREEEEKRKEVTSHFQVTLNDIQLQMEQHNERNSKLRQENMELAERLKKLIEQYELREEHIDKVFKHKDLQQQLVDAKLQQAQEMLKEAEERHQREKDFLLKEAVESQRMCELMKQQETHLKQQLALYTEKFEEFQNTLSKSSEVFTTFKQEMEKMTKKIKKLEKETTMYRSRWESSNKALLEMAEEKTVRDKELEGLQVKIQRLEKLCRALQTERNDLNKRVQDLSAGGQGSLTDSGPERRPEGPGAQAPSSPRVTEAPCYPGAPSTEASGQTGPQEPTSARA
T2 sequence (P78358 whole entry): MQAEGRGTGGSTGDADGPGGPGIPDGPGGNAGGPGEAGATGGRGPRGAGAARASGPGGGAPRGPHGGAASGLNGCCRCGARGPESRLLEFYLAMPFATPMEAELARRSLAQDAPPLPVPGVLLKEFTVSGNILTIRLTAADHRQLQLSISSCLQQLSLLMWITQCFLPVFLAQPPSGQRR
T1 sequence (P83916 whole entry): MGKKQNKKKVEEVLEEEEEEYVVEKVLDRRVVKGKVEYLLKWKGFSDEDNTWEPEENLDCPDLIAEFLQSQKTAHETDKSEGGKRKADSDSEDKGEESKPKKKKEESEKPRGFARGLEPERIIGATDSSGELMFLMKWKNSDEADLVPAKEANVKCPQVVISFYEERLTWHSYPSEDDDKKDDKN
T4 sequence (P43357 whole entry): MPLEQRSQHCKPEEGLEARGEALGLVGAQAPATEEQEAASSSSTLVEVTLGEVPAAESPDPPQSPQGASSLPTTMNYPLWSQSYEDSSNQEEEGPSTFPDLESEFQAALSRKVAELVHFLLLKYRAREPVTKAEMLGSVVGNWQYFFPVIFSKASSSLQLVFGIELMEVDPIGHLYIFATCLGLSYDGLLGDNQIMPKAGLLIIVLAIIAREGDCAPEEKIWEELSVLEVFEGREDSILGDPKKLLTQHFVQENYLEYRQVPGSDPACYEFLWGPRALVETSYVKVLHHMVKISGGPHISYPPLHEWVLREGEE
T7 sequence (P45973 whole entry): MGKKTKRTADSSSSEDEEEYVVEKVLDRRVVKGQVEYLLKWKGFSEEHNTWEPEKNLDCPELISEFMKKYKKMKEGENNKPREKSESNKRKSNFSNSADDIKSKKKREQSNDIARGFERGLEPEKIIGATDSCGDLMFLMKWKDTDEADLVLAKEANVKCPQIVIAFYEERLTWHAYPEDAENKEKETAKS

B1: TMEL1012 (antibody, V domains shown)
VH: PLQLQESGPGLVKPSETLSLTCTVSGDSITTTYYWGWIRQPPGKGLEWIASIYFTGSTFHNPSLKSRVTMSVDTSKNQFSLNLSSVTAADTAVYYCARRVGNWNYVWFDPWGQGTLVSVSS
VL: AYVLTQPPSVSVAPGQTARMTCGGNNIGSKSVHWYRQRPGQAPVLVVYDDTDRPSGIPERFSGSNSGNTATLTISRVEAGDEADYYCQVWDTNSDHVVFGGGTKLTVLG
no binding (tested: 1 µg/ml): all assays above

B2: TMEL1004 (antibody, V domains shown)
VH: QITLKESGPTLVKPTQTLTLTCTFSGFSLNTPGVGVGWIRQPPGKALEWLALIYWDDDKRYRPSLESRLTITKDTSKNHVVLTMTNMDPVDTATYFCAHKNLQYSEWFDPWGQGTLVIVSS
VL: EMVLTQSPATLSLSPGERATLSCRASQSVSRNSLAWYQQRPGQTPRLLIYGASSRATGIPDRFSGSGSGTDFTLIISRLEPEDFAVYFCLQYDESPYTFGQGAKLEIKR
no binding (tested: 1 µg/ml): all assays above
